From patent US20240270821A1, “GIP/GLP1/GCG TRI-RECEPTOR AGONISTS AND USES THEREOF” (priority 2023, published 2024)
Numbering of substitutions follows the chain as printed.

T1: human GIP receptor (human) (UniProt P48546)
T1 sequence (looked up): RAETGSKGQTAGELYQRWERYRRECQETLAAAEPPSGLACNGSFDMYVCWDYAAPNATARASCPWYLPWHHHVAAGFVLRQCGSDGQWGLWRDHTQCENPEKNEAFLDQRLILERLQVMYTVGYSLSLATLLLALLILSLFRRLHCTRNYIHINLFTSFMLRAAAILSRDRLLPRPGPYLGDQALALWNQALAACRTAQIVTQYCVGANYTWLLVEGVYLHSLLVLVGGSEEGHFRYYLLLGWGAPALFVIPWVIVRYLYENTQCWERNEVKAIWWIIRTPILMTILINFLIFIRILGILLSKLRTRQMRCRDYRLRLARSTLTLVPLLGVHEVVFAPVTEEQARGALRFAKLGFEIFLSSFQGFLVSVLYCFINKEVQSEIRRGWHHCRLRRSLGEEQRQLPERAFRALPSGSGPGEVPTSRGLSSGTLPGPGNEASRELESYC

B1: Example 1004 (peptide)
chain: YXQGTFTSDXSXXLDXKAQXXFIEYLLAGGPSSGAPPPSGSEE
modifications: non-natural residues; C18 diacid-(γ-Glu)2 acyl on Lys; C-terminal amide; synthetic construct; SITE 2: note = 2-Aminoisobutyric Acid; SITE 10: note = 3-(4-Pyridyl)-L-alanine; SITE 12: note = L-ornithine; SITE 13: note = alpha-methyl-leucine; SITE 16: note = L-ornithine; SITE 17: note = Lysine is chemically modified through conjugation of the epsilon-amino group of the Lys
B2: Example 993 (peptide)
chain: B1 chain with X21E, Y25X, L27I
modifications: non-natural residues; lipidated Lys (γGlu)2-C18 diacid; C-term amide; synthetic construct; SITE 2: note = 2-Aminoisobutyric Acid; SITE 10: note = 3-(4-Pyridyl)-L-alanine; SITE 12: note = L-ornithine; SITE 13: note = alpha-methyl-leucine; SITE 16: note = L-ornithine; SITE 17: note = Lysine is chemically modified through conjugation of the epsilon-amino group of the Lys
B3: Example 998 (peptide)
chain: B1 chain with X12Q, X21Q, Y25X
modifications: non-natural residues, acylated Lys, C-terminal amide; synthetic construct; SITE 2: note = 2-Aminoisobutyric Acid; SITE 10: note = 3-(4-Pyridyl)-L-alanine; SITE 13: note = alpha-methyl-leucine; SITE 16: note = L-ornithine; SITE 17: note = Lysine is chemically modified through conjugation of the epsilon-amino group of the Lysine side chain with (gamma-Gl)
B4: Example 997 (peptide)
chain: B1 chain with Y25X
modifications: non-natural residues; lipidated Lys (γGlu)2-C18 diacid; C-term amide; synthetic construct; SITE 2: note = 2-Aminoisobutyric Acid; SITE 10: note = 3-(4-Pyridyl)-L-alanine; SITE 12: note = L-ornithine; SITE 13: note = alpha-methyl-leucine; SITE 16: note = L-ornithine; SITE 17: note = Lysine is chemically modified through conjugation of the epsilon-amino group of the Lys
B5: Example 1005 (peptide)
chain: B1 chain with X12Q, X21Q, L27I
modifications: not fully specified; synthetic construct; SITE 2: note = 2-Aminoisobutyric Acid; SITE 10: note = 3-(4-Pyridyl)-L-alanine; SITE 13: note = alpha-methyl-leucine; SITE 16: note = L-ornithine; SITE 17: note = Lysine is chemically modified through conjugation of the epsilon-amino group of the Lysine side chain with (gamma-Gl)
B6: Example 1006 (peptide)
chain: B1 chain with X12Q, X21Q
modifications: synthetic construct; SITE 2: note = 2-Aminoisobutyric Acid; SITE 10: note = 3-(4-Pyridyl)-L-alanine; SITE 13: note = alpha-methyl-leucine; SITE 16: note = L-ornithine; SITE 17: note = Lysine is chemically modified through conjugation of the epsilon-amino group of the Lysine side chain with (gamma-Gl)
B7: Example 996 (peptide)
chain: B1 chain with X21E, Y25X
modifications: acylated lysine (γ-Glu)2 C18 diacid; non-natural residues; C-terminal amide; synthetic construct; SITE 2: note = 2-Aminoisobutyric Acid; SITE 10: note = 3-(4-Pyridyl)-L-alanine; SITE 12: note = L-ornithine; SITE 13: note = alpha-methyl-leucine; SITE 16: note = L-ornithine; SITE 17: note = Lysine is chemically modified through conjugation of the epsilon-amino group of the Lys
B8: Example 994 (peptide)
chain: B1 chain with Y25X, L27I
modifications: Lys acylated with (γGlu)2-C18 diacid; non-natural residues; C-amide; synthetic construct; SITE 2: note = 2-Aminoisobutyric Acid; SITE 10: note = 3-(4-Pyridyl)-L-alanine; SITE 12: note = L-ornithine; SITE 13: note = alpha-methyl-leucine; SITE 16: note = L-ornithine; SITE 17: note = Lysine is chemically modified through conjugation of the epsilon-amino group of the Lys
B9: Example 989 (peptide)
chain: YXQGTFTSDXSXXLDKKAQXAFIEXLIEXGPSSGEPPPSGS
modifications: Lys acylated (γ-Glu)2-C18 diacid; non-natural residues; C-terminal amide; synthetic construct; SITE 2: note = 2-Aminoisobutyric Acid; SITE 10: note = 3-(4-Pyridyl)-L-alanine; SITE 12: note = L-ornithine; SITE 13: note = alpha-methyl-leucine; SITE 17: note = Lysine is chemically modified through conjugation of the epsilon-amino group of the Lysine side chain with (gamma-Gl)
B10: Example 1007 (peptide)
chain: B9 chain with X12Q, K16X, X25Y, E28A, X29G
modifications: not fully specified; synthetic construct; SITE 2: note = 2-Aminoisobutyric Acid; SITE 10: note = 3-(4-Pyridyl)-L-alanine; SITE 13: note = alpha-methyl-leucine; SITE 16: note = L-ornithine; SITE 17: note = Lysine is chemically modified through conjugation of the epsilon-amino group of the Lysine side chain with (gamma-Gl)
B11: Example 991 (peptide)
chain: B9 chain with K16X
modifications: Aib, 4Pal, Orn, Me4Pal, lipidated Lys, C-terminal amide; synthetic construct; SITE 2: note = 2-Aminoisobutyric Acid; SITE 10: note = 3-(4-Pyridyl)-L-alanine; SITE 12: note = L-ornithine; SITE 13: note = alpha-methyl-leucine; SITE 16: note = L-ornithine; SITE 17: note = Lysine is chemically modified through conjugation of the epsilon-amino group of the Lys
B12: Example 1013 (peptide)
chain: B9 chain with K16X, X29G, E35A
modifications: Aib, 4Pal, Orn, αMeL, Me4Pal, αMeY, (γGlu)2-C18 diacid, amide; synthetic construct; SITE 2: note = 2-Aminoisobutyric Acid; SITE 10: note = 3-(4-Pyridyl)-L-alanine; SITE 12: note = L-ornithine; SITE 13: note = alpha-methyl-leucine; SITE 16: note = L-ornithine; SITE 17: note = Lysine is chemically modified through conjugation of the epsilon-amino group of the Lys
B13: Example 1017 (peptide)
chain: B9 chain with X12Q, K16X, X25Y, X29A, E35A
modifications: not fully specified; Aib, 4Pal, αMeL, Orn, Me4Pal, D-Ala; acylated Lys; amide; synthetic construct; SITE 2: note = 2-Aminoisobutyric Acid; SITE 10: note = 3-(4-Pyridyl)-L-alanine; SITE 13: note = alpha-methyl-leucine; SITE 16: note = L-ornithine; SITE 17: note = Lysine is chemically modified through conjugation of the epsilon-amino group of the Lysine side chain with (gamma-Gl)
B14: Example 1015 (peptide)
chain: B9 chain with E28A, X29G, E35A, S39E
modifications: non-natural residues (Aib, 4Pal, Orn, Me4Pal, αMeY); lipidated K; amide; synthetic construct; SITE 2: note = 2-Aminoisobutyric Acid; SITE 10: note = 3-(4-Pyridyl)-L-alanine; SITE 12: note = L-ornithine; SITE 13: note = alpha-methyl-leucine; SITE 17: note = Lysine is chemically modified through conjugation of the epsilon-amino group of the Lysine side chain with (gamma-Gl)
B15: Example 1014 (peptide)
chain: B9 chain with E28A, X29G
modifications: Aib, 4Pal, Orn, αMeL, Me4Pal, αMeY; γGlu2-C18 diacid Lys; amide; synthetic construct; SITE 2: note = 2-Aminoisobutyric Acid; SITE 10: note = 3-(4-Pyridyl)-L-alanine; SITE 12: note = L-ornithine; SITE 13: note = alpha-methyl-leucine; SITE 17: note = Lysine is chemically modified through conjugation of the epsilon-amino group of the Lysine side chain with (gamma-Gl)
B16: Example 1016 (peptide)
chain: B9 chain with X12Q, K16X, X25Y, X29A, E35A
modifications: not fully specified; Aib, 4Pal, αMeL, Orn, Me4Pal, D-Ala; acylated Lys; C-terminal amide; synthetic construct; SITE 2: note = 2-Aminoisobutyric Acid; SITE 10: note = 3-(4-Pyridyl)-L-alanine; SITE 13: note = alpha-methyl-leucine; SITE 16: note = L-ornithine; SITE 17: note = Lysine is chemically modified through conjugation of the epsilon-amino group of the Lysine side chain with (2-[2-(2-
B17: Example 1019 (peptide)
chain: B9 chain with X12Q, K16X, X25Y, X29A
modifications: not fully specified; non-natural residues, (γGlu)2-C18 diacid lysine acylation, C-terminal amide; synthetic construct; SITE 2: note = 2-Aminoisobutyric Acid; SITE 10: note = 3-(4-Pyridyl)-L-alanine; SITE 13: note = alpha-methyl-leucine; SITE 16: note = L-ornithine; SITE 17: note = Lysine is chemically modified through conjugation of the epsilon-amino group of the Lysine side chain with (gamma-Gl)

These binders were tested against hGLP-1R (Homo sapiens, UniProt P43220) (assay: cell-based or functional assay).
Sequence of hGLP-1R (P43220 24-463): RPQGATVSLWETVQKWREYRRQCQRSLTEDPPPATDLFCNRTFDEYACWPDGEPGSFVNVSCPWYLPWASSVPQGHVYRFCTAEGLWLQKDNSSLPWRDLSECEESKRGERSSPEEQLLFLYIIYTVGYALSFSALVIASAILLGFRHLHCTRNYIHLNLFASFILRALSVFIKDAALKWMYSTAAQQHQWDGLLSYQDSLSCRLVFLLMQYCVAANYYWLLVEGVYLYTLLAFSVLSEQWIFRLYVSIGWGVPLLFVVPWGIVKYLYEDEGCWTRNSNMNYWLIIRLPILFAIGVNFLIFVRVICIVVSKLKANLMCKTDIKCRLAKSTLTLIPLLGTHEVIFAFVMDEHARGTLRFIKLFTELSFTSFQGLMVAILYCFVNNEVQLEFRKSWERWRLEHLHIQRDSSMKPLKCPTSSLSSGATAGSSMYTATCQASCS

B1 and B2 are within 1.5-fold of each other in cAMP Rel EC50, nM (1% HSA): 973 nM for the first, 1210 nM for the second.

B3 and B4 are within 1.5-fold of each other in cAMP Rel EC50, nM (1% HSA): 1470 nM for the first, 1880 nM for the second.

Going from B5 to B6, the cAMP Rel EC50, nM (1% HSA) rises from 171 nM to 574 nM (3.4-fold).

Compared with B7, B8 is 12-fold lower in cAMP Rel EC50, nM (1% HSA): 4810 nM for the first, 395 nM for the second.

Going from B9 to B10, the cAMP Rel EC50, nM (1% HSA) falls from 402 nM to 95.1 nM (4.2-fold).

Compared with B11, B12 is 2.3-fold lower in cAMP Rel EC50, nM (1% HSA): 315 nM for the first, 137 nM for the second.

B13 and B14 are within 1.5-fold of each other in cAMP Rel EC50, nM (1% HSA): 118 nM for the first, 92.4 nM for the second.

Compared with B15, B16 is 1.8-fold higher in cAMP Rel EC50, nM (1% HSA): 86.4 nM for the first, 156 nM for the second.

Binder B17 has a cAMP Rel EC50, nM (1% HSA) of 161 nM.

Going from B5 to B6, the Relative cAMP EC50 rises from 1.48 nM to 5.12 nM (3.5-fold).

Going from B9 to B10, the Relative cAMP EC50 falls from 3.92 nM to 0.668 nM (5.9-fold).

Going from B11 to B15, the Relative cAMP EC50 falls from 3.91 nM to 0.718 nM (5.4-fold).

In the case of B17, the Relative cAMP EC50 is reported as 1.33 nM.

What follows are binders tested against T1, human GIP receptor (human) (assay: cell-based or functional assay).

First: B1
Second: B2
The cAMP Rel EC50, nM (1% HSA) of the first is 2.4-fold higher: 35.4 nM for the first, 14.5 nM for the second.

Going from B3 to B4, the cAMP Rel EC50, nM (1% HSA) rises from 6.78 nM to 27.8 nM (4.1-fold).

B5 and B6 are within 1.5-fold of each other in cAMP Rel EC50, nM (1% HSA): 14.5 nM for the first, 11.8 nM for the second.

First: B7
Second: B8
The cAMP Rel EC50, nM (1% HSA) of the first is 2.8-fold lower: 11.2 nM for the first, 30.8 nM for the second.

Going from B9 to B10, the cAMP Rel EC50, nM (1% HSA) rises from 8 nM to 12 nM (1.5-fold).

First: B11
Second: B12
The cAMP Rel EC50, nM (1% HSA) of the first is 1.5-fold lower: 14.8 nM for the first, 22.6 nM for the second.

Going from B13 to B14, the cAMP Rel EC50, nM (1% HSA) falls from 28.3 nM to 9.08 nM (3.1-fold).

First: B15
Second: B16
The cAMP Rel EC50, nM (1% HSA) of the first is 5.4-fold lower: 5.62 nM for the first, 30.6 nM for the second.

Binder B17 has a cAMP Rel EC50, nM (1% HSA) of 21.3 nM.

B5 and B6 are within 1.5-fold of each other in Relative cAMP EC50: 0.152 nM for the first, 0.109 nM for the second.

B9 and B10 are within 1.5-fold of each other in Relative cAMP EC50: 0.103 nM for the first, 0.116 nM for the second.

First: B11
Second: B15
The Relative cAMP EC50 of the first is 2.9-fold higher: 0.119 nM for the first, 0.0412 nM for the second.

For B17, the Relative cAMP EC50 was 0.169 nM.

The binders below were run against human glucagon receptor (human) (UniProt P47871) (assay: cell-based or functional assay).
Sequence of human glucagon receptor (human) (P47871 26-477): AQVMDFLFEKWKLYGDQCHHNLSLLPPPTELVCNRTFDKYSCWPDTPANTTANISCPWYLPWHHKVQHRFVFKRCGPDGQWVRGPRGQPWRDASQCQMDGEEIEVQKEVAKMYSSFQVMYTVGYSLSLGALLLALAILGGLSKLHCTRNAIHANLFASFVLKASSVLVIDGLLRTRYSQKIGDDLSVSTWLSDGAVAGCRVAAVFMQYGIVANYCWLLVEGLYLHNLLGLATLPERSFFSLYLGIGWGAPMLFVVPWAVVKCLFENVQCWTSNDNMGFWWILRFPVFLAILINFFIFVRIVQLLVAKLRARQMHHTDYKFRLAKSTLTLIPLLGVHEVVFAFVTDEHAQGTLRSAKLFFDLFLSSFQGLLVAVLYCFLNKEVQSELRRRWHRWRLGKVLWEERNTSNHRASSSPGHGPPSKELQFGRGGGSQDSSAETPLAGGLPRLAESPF

Going from B1 to B2, the cAMP Rel EC50, nM (1% HSA) rises from 237 nM to 1860 nM (7.8-fold).

Compared with B3, B4 is 1.5-fold lower in cAMP Rel EC50, nM (1% HSA): 794 nM for the first, 527 nM for the second.

Going from B5 to B6, the cAMP Rel EC50, nM (1% HSA) falls from 1670 nM to 315 nM (5.3-fold).

B7 and B8 are within 1.5-fold of each other in cAMP Rel EC50, nM (1% HSA): 1160 nM for the first, 1050 nM for the second.

Going from B9 to B10, the cAMP Rel EC50, nM (1% HSA) rises from 247 nM to 636 nM (2.6-fold).

B11 and B12 are within 1.5-fold of each other in cAMP Rel EC50, nM (1% HSA): 405 nM for the first, 285 nM for the second.

First: B13
Second: B14
The cAMP Rel EC50, nM (1% HSA) of the first is 1.8-fold higher: 649 nM for the first, 357 nM for the second.

Going from B15 to B16, the cAMP Rel EC50, nM (1% HSA) rises from 277 nM to 626 nM (2.3-fold).

For B17, the cAMP Rel EC50, nM (1% HSA) was 579 nM.

Compared with B5, B6 is 2.2-fold lower in Relative cAMP EC50: 9.46 nM for the first, 4.28 nM for the second.

Going from B9 to B10, the Relative cAMP EC50 rises from 2.27 nM to 5.34 nM (2.4-fold).

B11 and B15 are within 1.5-fold of each other in Relative cAMP EC50: 3.03 nM for the first, 3.62 nM for the second.

Binder B17 has a Relative cAMP EC50 of 4.36 nM.
